{"source": "patent US5912325A", "about": "“Biologically active porcine somatotropin polypeptides and methods of using the same” (American Cyanamid Company, priority 1994, dated 1999)", "molecules": {"B1": {"name": "pST: single chain polypeptide of 191 amino acids, growth hormone native to swine (protein, UniProt P01248 27-216, looked up)", "Somatotropin": "FPAMPLSSLFANAVLRAQHLHQLAADTYKEFERAYIPEGQRYSIQNAQAAFCFSETIPAPTGKDEAQQRSDVELLRFSLLLIQSWLGPVQFLSRVFTNSLVFGTSDRVYEKLKDLEEGIQALMRELEDGSPRAGQILKQTYDKFDTNLRSDDALLKNYGLLSCFKKDLHKAETYLRVMKCRRFVESSCAF"}}, "tested_on": "hypox rats", "assay": "Biological assay for growth-promoting activity: net weight gain of hypophysectomized rats", "format": "in vivo, rat", "conditions": "5 ug/day pST alone, day 0 to 4 and day 7 to 10, versus untreated rats, FIG. 4", "procedure": "Hypox rats are injected subcutaneously with pST (5 ug/day) with or without antibody (2 mg/day) for 5 consecutive days and the net weight gain is recorded. Immune antibodies are prepared from two pigs that had been immunized with pST (54-95) and the control antibody is prepared from a pooled sera of non-immunized pigs. *,p<0.05; **,p<0.01.\nIn a study similar to that shown in FIG. 3, except antibody is injected at a dose of 0.5 mg/day and for a longer period of time. *,p<0.05; **,p<0.01; ***,p<0.001.\nHypophysectomized female Sprague-Dawley rats, 21 days of age and weighing 50-64 g, are obtained from Taconic Farm, Germantown, N.Y. and used to assay for Growth Hormone (GH). Female crossbred swine (Duroc x Yorkshire x Hampshire), 3-5 months of age, weighing 30-50 kg, are obtained from the breeding colony of American Cyanamid Co., Princeton, N.J. and used for the production of antibodies.\nHypophysectomized rats are randomly allocated to groups of eight. Antibody mixed with 5 ug pST at room temperature for 1 hour is administered subcutaneously in the neck region of experimental rats. All animals are treated daily for various periods of time and their growth is recorded as net weight gain. […]\nThe growth enhancing effect of these antibodies are evaluated in hypox rats. […] Net weight gains are recorded. […]", "data": [{"molecule": "B1", "values": [{"measurement": "growth (net weight gain)", "value": "marked growth as compared to untreated rats"}]}]}
